Experimental data published in US20180298422A1.

Biological target: Taq DNA polymerase (Thermus aquaticus) (UniProt P19821)
Assay: cell-based or functional assay

Chain of UniProt P19821 (P19821 whole entry): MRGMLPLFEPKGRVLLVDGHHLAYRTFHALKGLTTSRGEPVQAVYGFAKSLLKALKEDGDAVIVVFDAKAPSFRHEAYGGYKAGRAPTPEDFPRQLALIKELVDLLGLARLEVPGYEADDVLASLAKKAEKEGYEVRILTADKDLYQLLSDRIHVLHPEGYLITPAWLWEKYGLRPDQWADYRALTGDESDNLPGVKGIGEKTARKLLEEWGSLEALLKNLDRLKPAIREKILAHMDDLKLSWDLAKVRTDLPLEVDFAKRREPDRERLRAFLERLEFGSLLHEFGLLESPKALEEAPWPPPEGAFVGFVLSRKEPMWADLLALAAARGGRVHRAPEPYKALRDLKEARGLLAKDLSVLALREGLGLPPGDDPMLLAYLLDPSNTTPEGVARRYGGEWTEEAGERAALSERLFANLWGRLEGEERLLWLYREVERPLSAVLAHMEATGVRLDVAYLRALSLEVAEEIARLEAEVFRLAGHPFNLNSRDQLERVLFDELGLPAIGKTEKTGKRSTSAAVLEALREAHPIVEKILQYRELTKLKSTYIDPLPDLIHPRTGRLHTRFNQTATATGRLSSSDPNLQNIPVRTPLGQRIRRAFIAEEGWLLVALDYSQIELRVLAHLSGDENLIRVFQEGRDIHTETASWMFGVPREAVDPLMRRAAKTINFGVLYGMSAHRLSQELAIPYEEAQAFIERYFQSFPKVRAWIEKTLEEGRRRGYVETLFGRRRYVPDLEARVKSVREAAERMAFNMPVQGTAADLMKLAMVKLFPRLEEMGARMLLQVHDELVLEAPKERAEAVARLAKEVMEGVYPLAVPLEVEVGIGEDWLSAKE

JumpStart Antibody (Sigma Aldrich)
reactivation time of Taq DNA polymerase at 95 C in real-time PCR: < 0.5 min
